Biological target: HLA A*0201 (human)
Experiment: ELISA-based peptide-HLA binding method (Sylvester-Hvid et al., 2002)

B1: CCN-001 (peptide)
peptide: LLGATCMFV
notes: also called cyclin peptide CCN-001
B1: binds.

From patent US20120027684A1 (IMMATICS BIOTECHNOLOGIES, published 2012)
